Data as given in patent publication US20130005646A1 (Novo Nordisk, published 2013).
Starred links: 1 amine or outer side, 2 acyl side, 3 side chain; linkers in the order of their positions; H or OH if unused. Positions of bridges follow the written chain, without caps; N, C: chain ends. Groups on a side chain read outwards from the residue. No end group written: not given here. *: point of attachment. X1 = (S)‑4‑Carboxy‑4‑(19-carboxynonadecanoylamino)butyryl, O=C(O)CCCCCCCCCCCCCCCCCCC(=O)N[C@@H](CCC(=O)*)C(=O)O; C20 diacid = O=C(O)CCCCCCCCCCCCCCCCCCC(=O)*; γGlu = O=C(O)[C@H](CCC(=O)[*:2])N[*:1]; AEEA = NCCOCCOCC(=O)O

T1: human amylin 3(a) receptor (human calcitonin receptor + RAMP-3) (human, UniProt P30988 25-474; O60896 24-148)
T1 sequence (looked up) 1: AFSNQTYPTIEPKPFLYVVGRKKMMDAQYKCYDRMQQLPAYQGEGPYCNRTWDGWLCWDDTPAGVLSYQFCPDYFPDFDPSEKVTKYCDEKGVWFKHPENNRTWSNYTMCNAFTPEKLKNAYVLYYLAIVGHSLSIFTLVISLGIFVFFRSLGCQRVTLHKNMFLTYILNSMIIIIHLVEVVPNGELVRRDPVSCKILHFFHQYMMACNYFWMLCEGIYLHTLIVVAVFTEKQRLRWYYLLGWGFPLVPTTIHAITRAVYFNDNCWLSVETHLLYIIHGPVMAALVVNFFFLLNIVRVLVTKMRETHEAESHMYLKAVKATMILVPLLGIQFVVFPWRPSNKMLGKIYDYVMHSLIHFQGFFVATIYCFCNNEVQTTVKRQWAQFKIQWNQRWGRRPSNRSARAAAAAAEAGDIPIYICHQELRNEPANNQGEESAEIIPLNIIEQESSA
T1 sequence (looked up) 2: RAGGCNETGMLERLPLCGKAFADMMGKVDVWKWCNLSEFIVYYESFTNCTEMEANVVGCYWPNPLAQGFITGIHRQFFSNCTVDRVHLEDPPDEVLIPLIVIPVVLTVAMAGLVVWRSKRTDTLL

T2: human calcitonin (a) receptor (human, UniProt P30988 25-474)
T2 sequence (looked up): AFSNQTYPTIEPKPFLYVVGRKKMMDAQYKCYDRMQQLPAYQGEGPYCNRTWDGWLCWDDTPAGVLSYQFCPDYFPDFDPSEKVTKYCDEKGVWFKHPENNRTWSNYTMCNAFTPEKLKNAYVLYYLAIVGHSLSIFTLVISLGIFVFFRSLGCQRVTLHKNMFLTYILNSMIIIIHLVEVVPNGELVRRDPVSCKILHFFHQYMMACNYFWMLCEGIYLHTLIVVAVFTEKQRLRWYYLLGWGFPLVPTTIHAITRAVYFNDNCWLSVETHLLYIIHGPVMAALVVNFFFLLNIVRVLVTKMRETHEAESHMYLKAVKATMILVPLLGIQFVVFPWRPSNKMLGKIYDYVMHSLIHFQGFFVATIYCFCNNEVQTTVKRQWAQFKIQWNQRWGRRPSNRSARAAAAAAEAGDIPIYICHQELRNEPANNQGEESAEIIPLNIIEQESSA


Legend:
[1] = target: T1, human amylin 3(a) receptor (human …); test: cell-based or functional assay
[2] = target: T2, human calcitonin (a) receptor; test: cell-based or functional assay

Row | Binder | Amylin receptor human EC50 [1] [nM] | CTa receptor human EC50 [2] [nM]
1 | X1-HCNTATCATQRLAEFLVRSSNNFGPILPPTNVGSNTY-NH2 (disulfide 2-7; SMILES CC[C@H](C)[C@H](NC(=O)[C@@H]1CCCN1C(=O)CNC(=O)[C@H](Cc1ccccc1)NC(=O)[C@H](CC(N)=O)NC(=O)[C@H](CC(N)=O)NC(=O)[C@H](CO)NC(=O)[C@H](CO)NC(=O)[C@H](CCCNC(=N)N)NC(=O)[C@@H](NC(=O)[C@H](CC(C)C)NC(=O)[C@H](Cc1ccccc1)NC(=O)[C@H](CCC(=O)O)NC(=O)[C@H](C)NC(=O)[C@H](CC(C)C)NC(=O)[C@H](CCCNC(=N)N)NC(=O)[C@H](CCC(N)=O)NC(=O)[C@@H](NC(=O)[C@H](C)NC(=O)[C@@H]1CSSC[C@H](NC(=O)[C@H](Cc2c[nH]cn2)NC(=O)CC[C@H](NC(=O)CCCCCCCCCCCCCCCCCCC(=O)O)C(=O)O)C(=O)N[C@@H](CC(N)=O)C(=O)N[C@@H]([C@@H](C)O)C(=O)N[C@@H](C)C(=O)N[C@@H]([C@@H](C)O)C(=O)N1)[C@@H](C)O)C(C)C)C(=O)N[C@@H](CC(C)C)C(=O)N1CCC[C@H]1C(=O)N1CCC[C@H]1C(=O)N[C@H](C(=O)N[C@@H](CC(N)=O)C(=O)N[C@H](C(=O)NCC(=O)N[C@@H](CO)C(=O)N[C@@H](CC(N)=O)C(=O)N[C@H](C(=O)N[C@@H](Cc1ccc(O)cc1)C(N)=O)[C@@H](C)O)C(C)C)[C@@H](C)O) [N-alpha-[(S)-4-Carboxy-4-(19-carboxynonadecanoylamino)butyryl]-[His1,Glu14,Arg18]-pramlintide] | 0.083 | 0.125
2 | {C20 diacid-γGlu}-CGTATCATQRLAEFLHRSSQQFGPILPPTEVGSGTY-NH2 (disulfide 1-6; SMILES CC[C@H](C)[C@H](NC(=O)[C@@H]1CCCN1C(=O)CNC(=O)[C@H](Cc1ccccc1)NC(=O)[C@H](CCC(N)=O)NC(=O)[C@H](CCC(N)=O)NC(=O)[C@H](CO)NC(=O)[C@H](CO)NC(=O)[C@H](CCCNC(=N)N)NC(=O)[C@H](Cc1c[nH]cn1)NC(=O)[C@H](CC(C)C)NC(=O)[C@H](Cc1ccccc1)NC(=O)[C@H](CCC(=O)O)NC(=O)[C@H](C)NC(=O)[C@H](CC(C)C)NC(=O)[C@H](CCCNC(=N)N)NC(=O)[C@H](CCC(N)=O)NC(=O)[C@@H](NC(=O)[C@H](C)NC(=O)[C@@H]1CSSC[C@H](NC(=O)CC[C@H](NC(=O)CCCCCCCCCCCCCCCCCCC(=O)O)C(=O)O)C(=O)NCC(=O)N[C@@H]([C@@H](C)O)C(=O)N[C@@H](C)C(=O)N[C@@H]([C@@H](C)O)C(=O)N1)[C@@H](C)O)C(=O)N[C@@H](CC(C)C)C(=O)N1CCC[C@H]1C(=O)N1CCC[C@H]1C(=O)N[C@H](C(=O)N[C@@H](CCC(=O)O)C(=O)N[C@H](C(=O)NCC(=O)N[C@@H](CO)C(=O)NCC(=O)N[C@H](C(=O)N[C@@H](Cc1ccc(O)cc1)C(N)=O)[C@@H](C)O)C(C)C)[C@@H](C)O) | 0.253 | 0.284
3 | {C20 diacid-γGlu}-ECNTATCATQRLAEFLHRSSNNFGPILPPTNVGSNTY-NH2 (disulfide 2-7; SMILES CC[C@H](C)[C@H](NC(=O)[C@@H]1CCCN1C(=O)CNC(=O)[C@H](Cc1ccccc1)NC(=O)[C@H](CC(N)=O)NC(=O)[C@H](CC(N)=O)NC(=O)[C@H](CO)NC(=O)[C@H](CO)NC(=O)[C@H](CCCNC(=N)N)NC(=O)[C@H](Cc1c[nH]cn1)NC(=O)[C@H](CC(C)C)NC(=O)[C@H](Cc1ccccc1)NC(=O)[C@H](CCC(=O)O)NC(=O)[C@H](C)NC(=O)[C@H](CC(C)C)NC(=O)[C@H](CCCNC(=N)N)NC(=O)[C@H](CCC(N)=O)NC(=O)[C@@H](NC(=O)[C@H](C)NC(=O)[C@@H]1CSSC[C@H](NC(=O)[C@H](CCC(=O)O)NC(=O)CC[C@H](NC(=O)CCCCCCCCCCCCCCCCCCC(=O)O)C(=O)O)C(=O)N[C@@H](CC(N)=O)C(=O)N[C@@H]([C@@H](C)O)C(=O)N[C@@H](C)C(=O)N[C@@H]([C@@H](C)O)C(=O)N1)[C@@H](C)O)C(=O)N[C@@H](CC(C)C)C(=O)N1CCC[C@H]1C(=O)N1CCC[C@H]1C(=O)N[C@H](C(=O)N[C@@H](CC(N)=O)C(=O)N[C@H](C(=O)NCC(=O)N[C@@H](CO)C(=O)N[C@@H](CC(N)=O)C(=O)N[C@H](C(=O)N[C@@H](Cc1ccc(O)cc1)C(N)=O)[C@@H](C)O)C(C)C)[C@@H](C)O) [N-alpha-[(S)-4-Carboxy-4-(19-carboxynonadecanoylamino)butyryl]-[Glu1,Glu14,His17,Arg18]-pramlintide] | 0.353 | 1.65
4 | X1-HCNTATCATQRLAEFLHRSSNNFGAPLSSTNVGSNTY-NH2 (disulfide 2-7; SMILES CC(C)C[C@H](NC(=O)[C@H](CCCNC(=N)N)NC(=O)[C@H](CCC(N)=O)NC(=O)[C@@H](NC(=O)[C@H](C)NC(=O)[C@@H]1CSSC[C@H](NC(=O)[C@H](Cc2c[nH]cn2)NC(=O)CC[C@H](NC(=O)CCCCCCCCCCCCCCCCCCC(=O)O)C(=O)O)C(=O)N[C@@H](CC(N)=O)C(=O)N[C@@H]([C@@H](C)O)C(=O)N[C@@H](C)C(=O)N[C@@H]([C@@H](C)O)C(=O)N1)[C@@H](C)O)C(=O)N[C@@H](C)C(=O)N[C@@H](CCC(=O)O)C(=O)N[C@@H](Cc1ccccc1)C(=O)N[C@@H](CC(C)C)C(=O)N[C@@H](Cc1c[nH]cn1)C(=O)N[C@@H](CCCNC(=N)N)C(=O)N[C@@H](CO)C(=O)N[C@@H](CO)C(=O)N[C@@H](CC(N)=O)C(=O)N[C@@H](CC(N)=O)C(=O)N[C@@H](Cc1ccccc1)C(=O)NCC(=O)N[C@@H](C)C(=O)N1CCC[C@H]1C(=O)N[C@@H](CC(C)C)C(=O)N[C@@H](CO)C(=O)N[C@@H](CO)C(=O)N[C@H](C(=O)N[C@@H](CC(N)=O)C(=O)N[C@H](C(=O)NCC(=O)N[C@@H](CO)C(=O)N[C@@H](CC(N)=O)C(=O)N[C@H](C(=O)N[C@@H](Cc1ccc(O)cc1)C(N)=O)[C@@H](C)O)C(C)C)[C@@H](C)O) | 0.115 | 0.24
5 | X1-HCNTATCATQRLAEFLHRSSNEFGARLSSTNVGSNTY-NH2 (disulfide 2-7; SMILES CC(C)C[C@H](NC(=O)[C@H](CCCNC(=N)N)NC(=O)[C@H](CCC(N)=O)NC(=O)[C@@H](NC(=O)[C@H](C)NC(=O)[C@@H]1CSSC[C@H](NC(=O)[C@H](Cc2c[nH]cn2)NC(=O)CC[C@H](NC(=O)CCCCCCCCCCCCCCCCCCC(=O)O)C(=O)O)C(=O)N[C@@H](CC(N)=O)C(=O)N[C@@H]([C@@H](C)O)C(=O)N[C@@H](C)C(=O)N[C@@H]([C@@H](C)O)C(=O)N1)[C@@H](C)O)C(=O)N[C@@H](C)C(=O)N[C@@H](CCC(=O)O)C(=O)N[C@@H](Cc1ccccc1)C(=O)N[C@@H](CC(C)C)C(=O)N[C@@H](Cc1c[nH]cn1)C(=O)N[C@@H](CCCNC(=N)N)C(=O)N[C@@H](CO)C(=O)N[C@@H](CO)C(=O)N[C@@H](CC(N)=O)C(=O)N[C@@H](CCC(=O)O)C(=O)N[C@@H](Cc1ccccc1)C(=O)NCC(=O)N[C@@H](C)C(=O)N[C@@H](CCCNC(=N)N)C(=O)N[C@@H](CC(C)C)C(=O)N[C@@H](CO)C(=O)N[C@@H](CO)C(=O)N[C@H](C(=O)N[C@@H](CC(N)=O)C(=O)N[C@H](C(=O)NCC(=O)N[C@@H](CO)C(=O)N[C@@H](CC(N)=O)C(=O)N[C@H](C(=O)N[C@@H](Cc1ccc(O)cc1)C(N)=O)[C@@H](C)O)C(C)C)[C@@H](C)O) | 0.127 | 0.279
6 | RCNTATCATQRLAEFLHRSSK([AEEA-AEEA-γGlu-19‑carboxyheptadecanoyl])NFGPILPPTNVGSNTY-NH2 (disulfide 2-7) | 0.0994 | 0.469
7 | {C20 diacid-γGlu}-HCNTATCATQRLAEFLHRSSNNFGEILSRTNVGSNTY-NH2 (disulfide 2-7; SMILES CC[C@H](C)[C@H](NC(=O)[C@H](CCC(=O)O)NC(=O)CNC(=O)[C@H](Cc1ccccc1)NC(=O)[C@H](CC(N)=O)NC(=O)[C@H](CC(N)=O)NC(=O)[C@H](CO)NC(=O)[C@H](CO)NC(=O)[C@H](CCCNC(=N)N)NC(=O)[C@H](Cc1c[nH]cn1)NC(=O)[C@H](CC(C)C)NC(=O)[C@H](Cc1ccccc1)NC(=O)[C@H](CCC(=O)O)NC(=O)[C@H](C)NC(=O)[C@H](CC(C)C)NC(=O)[C@H](CCCNC(=N)N)NC(=O)[C@H](CCC(N)=O)NC(=O)[C@@H](NC(=O)[C@H](C)NC(=O)[C@@H]1CSSC[C@H](NC(=O)[C@H](Cc2c[nH]cn2)NC(=O)CC[C@H](NC(=O)CCCCCCCCCCCCCCCCCCC(=O)O)C(=O)O)C(=O)N[C@@H](CC(N)=O)C(=O)N[C@@H]([C@@H](C)O)C(=O)N[C@@H](C)C(=O)N[C@@H]([C@@H](C)O)C(=O)N1)[C@@H](C)O)C(=O)N[C@@H](CC(C)C)C(=O)N[C@@H](CO)C(=O)N[C@@H](CCCNC(=N)N)C(=O)N[C@H](C(=O)N[C@@H](CC(N)=O)C(=O)N[C@H](C(=O)NCC(=O)N[C@@H](CO)C(=O)N[C@@H](CC(N)=O)C(=O)N[C@H](C(=O)N[C@@H](Cc1ccc(O)cc1)C(N)=O)[C@@H](C)O)C(C)C)[C@@H](C)O) | 0.0779 | 0.131
